The values that follow come from paper PMC10540216, “Activity Guided Azide-methyllysine Photo-trapping for Substrate Profiling of Lysine Demethylases” (Journal of the American Chemical Society, 2023).

B1: ZC3HE_HUMAN (protein, UniProt Q6PJT7 1-736, looked up)
Zinc finger CCCH …: MEIGTEISRKIRSAIKGKLQELGAYVDEELPDYIMVMVANKKSQDQMTEDLSLFLGNNTIRFTVWLHGVLDKLRSVTTEPSSLKSSDTNIFDSNVPSNKSNFSRGDERRHEAAVPPLAIPSARPEKRDSRVSTSSQESKTTNVRQTYDDGAATRLMSTVKPLREPAPSEDVIDIKPEPDDLIDEDLNFVQENPLSQKKPTVTLTYGSSRPSIEIYRPPASRNADSGVHLNRLQFQQQQNSIHAAKQLDMQSSWVYETGRLCEPEVLNSLEETYSPFFRNNSEKMSMEDENFRKRKLPVVSSVVKVKKFNHDGEEEEEDDDYGSRTGSISSSVSVPAKPERRPSLPPSKQANKNLILKAISEAQESVTKTTNYSTVPQKQTLPVAPRTRTSQEELLAEVVQGQSRTPRISPPIKEEETKGDSVEKNQGTQQRQLLSRLQIDPVMAETLQMSQDYYDMESMVHADTRSFILKKPKLSEEVVVAPNQESGMKTADSLRVLSGHLMQTRDLVQPDKPASPKFIVTLDGVPSPPGYMSDQEEDMCFEGMKPVNQTAASNKGLRGLLHPQQLHLLSRQLEDPNGSFSNAEMSELSVAQKPEKLLERCKYWPACKNGDECAYHHPISPCKAFPNCKFAEKCLFVHPNCKYDAKCTKPDCPFTHVSRRIPVLSPKPAVAPPAPPSSSQLCRYFPACKKMECPFYHPKHCRFNTQCTRPDCTFYHPTINVPPRHALKWIRPQTSE
B2: FIP1_HUMAN (protein, UniProt Q6UN15 1-594, looked up)
Pre-mRNA 3'-end-processing …: MSAGEVERLVSELSGGTGGDEEEEWLYGGPWDVHVHSDLAKDLDENEVERPEEENASANPPSGIEDETAENGVPKPKVTETEDDSDSDSDDDEDDVHVTIGDIKTGAPQYGSYGTAPVNLNIKTGGRVYGTTGTKVKGVDLDAPGSINGVPLLEVDLDSFEDKPWRKPGADLSDYFNYGFNEDTWKAYCEKQKRIRMGLEVIPVTSTTNKITAEDCTMEVTPGAEIQDGRFNLFKVQQGRTGNSEKETALPSTKAEFTSPPSLFKTGLPPSRNSTSSQSQTSTASRKANSSVGKWQDRYGRAESPDLRRLPGAIDVIGQTITISRVEGRRRANENSNIQVLSERSATEVDNNFSKPPPFFPPGAPPTHLPPPPFLPPPPTVSTAPPLIPPPGFPPPPGAPPPSLIPTIESGHSSGYDSRSARAFPYGNVAFPHLPGSAPSWPSLVDTSKQWDYYARREKDRDRERDRDRERDRDRDRERERTRERERERDHSPTPSVFNSDEERYRYREYAERGYERHRASREKEERHRERRHREKEETRHKSSRSNSRRRHESEEGDSHRRHKHKKSKRSKEGKEAGSEPAPEQESTEATPAE
B3: RNZ2_HUMAN (protein, UniProt Q9BQ52 17-826, looked up)
Zinc phosphodiesterase ELAC …: SQGRTISQAPARRERPRKDPLRHLRTREKRGPSGCSGGPNTVYLQVVAAGSRDSGAALYVFSEFNRYLFNCGEGVQRLMQEHKLKVARLDNIFLTRMHWSNVGGLSGMILTLKETGLPKCVLSGPPQLEKYLEAIKIFSGPLKGIELAVRPHSAPEYEDETMTVYQIPIHSEQRRGKHQPWQSPERPLSRLSPERSSDSESNENEPHLPHGVSQRRGVRDSSLVVAFICKLHLKRGNFLVLKAKEMGLPVGTAAIAPIIAAVKDGKSITHEGREILAEELCTPPDPGAAFVVVECPDESFIQPICENATFQRYQGKADAPVALVVHMAPASVLVDSRYQQWMERFGPDTQHLVLNENCASVHNLRSHKIQTQLNLIHPDIFPLLTSFRCKKEGPTLSVPMVQGECLLKYQLRPRREWQRDAIITCNPEEFIVEALQLPNFQQSVQEYRRSAQDGPAPAEKRSQYPEIIFLGTGSAIPMKIRNVSATLVNISPDTSLLLDCGEGTFGQLCRHYGDQVDRVLGTLAAVFVSHLHADHHTGLPSILLQRERALASLGKPLHPLLVVAPNQLKAWLQQYHNQCQEVLHHISMIPAKCLQEGAEISSPAVERLISSLLRTCDLEEFQTCLVRHCKHAFGCALVHTSGWKVVYSGDTMPCEALVRMGKDATLLIHEATLEDGLEEEAVEKTHSTTSQAISVGMRMNAEFIMLNHFSQRYAKVPLFSPNFSEKVGVAFDHMKVCFGDFPTMPKLIPPLKALFAGDIEEMEERREKRELRQVRAALLSRELAGGLEDGEPQQKRAHTEEPQAKKVRAQ
B4: PLOD3_HUMAN (protein, UniProt O60568 25-738, looked up)
Multifunctional procollagen …: SDRPRGRDPVNPEKLLVITVATAETEGYLRFLRSAEFFNYTVRTLGLGEEWRGGDVARTVGGGQKVRWLKKEMEKYADREDMIIMFVDSYDVILAGSPTELLKKFVQSGSRLLFSAESFCWPEWGLAEQYPEVGTGKRFLNSGGFIGFATTIHQIVRQWKYKDDDDDQLFYTRLYLDPGLREKLSLNLDHKSRIFQNLNGALDEVVLKFDRNRVRIRNVAYDTLPIVVHGNGPTKLQLNYLGNYVPNGWTPEGGCGFCNQDRRTLPGGQPPPRVFLAVFVEQPTPFLPRFLQRLLLLDYPPDRVTLFLHNNEVFHEPHIADSWPQLQDHFSAVKLVGPEEALSPGEARDMAMDLCRQDPECEFYFSLDADAVLTNLQTLRILIEENRKVIAPMLSRHGKLWSNFWGALSPDEYYARSEDYVELVQRKRVGVWNVPYISQAYVIRGDTLRMELPQRDVFSGSDTDPDMAFCKSFRDKGIFLHLSNQHEFGRLLATSRYDTEHLHPDLWQIFDNPVDWKEQYIHENYSRALEGEGIVEQPCPDVYWFPLLSEQMCDELVAEMEHYGQWSGGRHEDSRLAGGYENVPTVDIHMKQVGYEDQWLQLLRTYVGPMTESLFPGYHTKARAVMNFVVRYRPDEQPSLRPHHDSSTFTLNVALNHKGLDYEGGGCRFLRYDCVISSPRKGWALLHPGRLTHYHEGLPTTWGTRYIMVSFVDP
B5: TF3C4_HUMAN (protein, UniProt Q9UKN8 1-822, looked up)
General transcription factor …: MNTADQARVGPADDGPAPSGEEEGEGGGEAGGKEPAADAAPGPSAAFRLMVTRREPAVKLQYAVSGLEPLAWSEDHRVSVSTARSIAVLELICDVHNPGQDLVIHRTSVPAPLNSCLLKVGSKTEVAECKEKFAASKDPTVSQTFMLDRVFNPEGKALPPMRGFKYTSWSPMGCDANGRCLLAALTMDNRLTIQANLNRLQWVQLVDLTEIYGERLYETSYRLSKNEAPEGNLGDFAEFQRRHSMQTPVRMEWSGICTTQQVKHNNECRDVGSVLLAVLFENGNIAVWQFQLPFVGKESISSCNTIESGITSPSVLFWWEYEHNNRKMSGLIVGSAFGPIKILPVNLKAVKGYFTLRQPVILWKEMDQLPVHSIKCVPLYHPYQKCSCSLVVAARGSYVFWCLLLISKAGLNVHNSHVTGLHSLPIVSMTADKQNGTVYTCSSDGKVRQLIPIFTDVALKFEHQLIKLSDVFGSVRTHGIAVSPCGAYLAIITTEGMINGLHPVNKNYQVQFVTLKTFEEAAAQLLESSVQNLFKQVDLIDLVRWKILKDKHIPQFLQEALEKKIESSGVTYFWRFKLFLLRILYQSMQKTPSEALWKPTHEDSKILLVDSPGMGNADDEQQEEGTSSKQVVKQGLQERSKEGDVEEPTDDSLPTTGDAGGREPMEEKLLEIQGKIEAVEMHLTREHMKRVLGEVYLHTWITENTSIPTRGLCNFLMSDEEYDDRTARVLIGHISKKMNKQTFPEHCSLCKEILPFTDRKQAVCSNGHIWLRCFLTYQSCQSLIYRRCLLHDSIARHPAPEDPDWIKRLLQSPCPFCDSPVF
B6: CMTR1_HUMAN (protein, UniProt Q8N1G2 1-835, looked up)
Cap-specific mRNA …: MKRRTDPECTAPIKKQKKRVAELALSLSSTSDDEPPSSVSHGAKASTTSLSGSDSETEGKQHSSDSFDDAFKADSLVEGTSSRYSMYNSVSQKLMAKMGFREGEGLGKYSQGRKDIVEASSQKGRRGLGLTLRGFDQELNVDWRDEPEPSACEQVSWFPECTTEIPDTQEMSDWMVVGKRKMIIEDETEFCGEELLHSVLQCKSVFDVLDGEEMRRARTRANPYEMIRGVFFLNRAAMKMANMDFVFDRMFTNPRDSYGKPLVKDREAELLYFADVCAGPGGFSEYVLWRKKWHAKGFGMTLKGPNDFKLEDFYSASSELFEPYYGEGGIDGDGDITRPENISAFRNFVLDNTDRKGVHFLMADGGFSVEGQENLQEILSKQLLLCQFLMALSIVRTGGHFICKTFDLFTPFSVGLVYLLYCCFERVCLFKPITSRPANSERYVVCKGLKVGIDDVRDYLFAVNIKLNQLRNTDSDVNLVVPLEVIKGDHEFTDYMIRSNESHCSLQIKALAKIHAFVQDTTLSEPRQAEIRKECLRLWGIPDQARVAPSSSDPKSKFFELIQGTEIDIFSYKPTLLTSKTLEKIRPVFDYRCMVSGSEQKFLIGLGKSQIYTWDGRQSDRWIKLDLKTELPRDTLLSVEIVHELKGEGKAQRKISAIHILDVLVLNGTDVREQHFNQRIQLAEKFVKAVSKPSRPDMNPIRVKEVYRLEEMEKIFVRLEMKIIKGSSGTPKLSYTGRDDRHFVPMGLYIVRTVNEPWTMGFSKSFKKKFFYNKKTKDSTFDLPADSIAPFHICYYGRLFWEWGDGIRVHDSQKPQDQDKLSKEDVLSFIQMHRA
B7: TIF1B_HUMAN (protein, UniProt Q13263 2-835, looked up)
Transcription intermediary …: AASAAAASAAAASAASGSPGPGEGSAGGEKRSTAPSAAASASASAAASSPAGGGAEALELLEHCGVCRERLRPEREPRLLPCLHSACSACLGPAAPAAANSSGDGGAAGDGTVVDCPVCKQQCFSKDIVENYFMRDSGSKAATDAQDANQCCTSCEDNAPATSYCVECSEPLCETCVEAHQRVKYTKDHTVRSTGPAKSRDGERTVYCNVHKHEPLVLFCESCDTLTCRDCQLNAHKDHQYQFLEDAVRNQRKLLASLVKRLGDKHATLQKSTKEVRSSIRQVSDVQKRVQVDVKMAILQIMKELNKRGRVLVNDAQKVTEGQQERLERQHWTMTKIQKHQEHILRFASWALESDNNTALLLSKKLIYFQLHRALKMIVDPVEPHGEMKFQWDLNAWTKSAEAFGKIVAERPGTNSTGPAPMAPPRAPGPLSKQGSGSSQPMEVQEGYGFGSGDDPYSSAEPHVSGVKRSRSGEGEVSGLMRKVPRVSLERLDLDLTADSQPPVFKVFPGSTTEDYNLIVIERGAAAAATGQPGTAPAGTPGAPPLAGMAIVKEEETEAAIGAPPTATEGPETKPVLMALAEGPGAEGPRLASPSGSTSSGLEVVAPEGTSAPGGGPGTLDDSATICRVCQKPGDLVMCNQCEFCFHLDCHLPALQDVPGEEWSCSLCHVLPDLKEEDGSLSLDGADSTGVVAKLSPANQRKCERVLLALFCHEPCRPLHQLATDSTFSLDQPGGTLDLTLIRARLQEKLSPPYSSPQEFAQDVGRMFKQFNKLTEDKADVQSIIGLQRFFETRMNEAFGDTKFSAVLVEPPPMSLPGAGLSSQELSGGPGDGP

This experiment relates to KDM4A-I71AzF. The experiment can be described thus: CASI: photo-crosslinking with HEK293T cell extracts, StrepTactin enrichment and LC-MS/MS proteomics.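 Also: lysates from HEK293T cells pretreated with a KDM4 inhibitor to raise proteome methylation, affinity-purified after ±UV, gel-resolved, trypsin-digested, with exclusive unique peptides per protein averaged per condition.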 As to conditions: sheet "Final results but with 0.01". In kind it is binding, human.
For the molecule B1, the “Fold change (+UV/-UV)” value is listed as 4. In the case of B2 it was 2; in that of B3, 0.5. To B4 belongs 0. For B5, the “Fold change (+UV/-UV)” value is on record as 0.6667. To B6 belongs 3; to B7, 0.8.
